Variants at the floor of the assay were thinned out.
B1: TPR 5TU (parent)
chain: GGAUCUUCUCGAUCUAACAAAAAAGACAAAUCUGCCACAAAGCUUGAGAGCAUCUUCGGAUGCAGAGGCGGCAGCCUUCGGUGGCGCGAUAGCGCCAACGUUCUCAACUAUGACACGCAAAACGCGUGCUCCGUUGAAUGGAGUUUAUCAUG

Variants of: B1
Assay: polymerase ribozyme fitness, log enrichment relative to wild type (log ratio); higher = more active; in vitro selection for triplet polymerase activity
In short: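 Streptavidin-bead capture of gel-excised extended constructs, followed by RT-PCR, closed a single triplicate in vitro selection round. That round began by annealing PCR-built, transcribed mutant libraries of each subunit of a heterodimeric triplet polymerase ribozyme with a biotinylated primer, the partner subunit and triplets, then incubating them frozen at −7 °C. After Illumina sequencing of inputs and outputs, genotypes needed ≥10 input reads and ≥1 read per output. Fitness is the base-2 logarithm of genotype enrichment over wild-type enrichment, using inverse-variance-weighted replicate averages.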

Row | Variant | polymerase ribozyme fitness (log ratio)
1 | A21G C36G A47C A120C G133A | ≤ -4.2
2 | A21G G68A | -3.89
3 | A21C C85A U127A | ≤ -4.2
4 | A21C A40U C93A | -1.84
5 | A21C G25U C96A A97G | -3.82
6 | A21U C32G C85A | ≤ -4.2
7 | A21U A22G A60G C132G U144C | -4.13
8 | A21C A60G A73U C93G A137U | ≤ -4.2
9 | A21C U33A G50A G62A U90C C95A | ≤ -4.2
10 | A21U U31C A73G G94U A113U | -3.49
11 | A21G A40U | 0.957
12 | A21G C27U A40U C69U C95G A98G C99U A115U A142U | ≤ -4.2
13 | A21U A22U U53G | -0.816
14 | A21U U61G G80A U101A | -2.86
15 | A21U C96A A110G C116U U145G | ≤ -4.2
16 | A21U C72U U77G U82G G100C U135G | ≤ -4.2
17 | A21C A52U G74A G94C A121U | ≤ -4.2
18 | A21C U55G C93U G126U | -0.141
19 | A21G C75U A98G C99G C114U | ≤ -4.2
20 | A21U U45G U55A A91U C125U C131G | ≤ -4.2
21 | A21U A41U U55G G83A U145A | -2.5
22 | A21C G42A C54A C96G U102G | ≤ -4.2
23 | A21C C35A A39C G100C G136U | ≤ -4.2
24 | A21G U33G A37U C85U C95U G141C | ≤ -4.2

Row | Variant | polymerase ribozyme fitness (log ratio)
25 | A21U U33G A122U U144G | -3.94
26 | A21C G25A | -2.85
27 | A21G A22G A37C G62C G94C C103A A106C U130A | ≤ -4.2
28 | A21U A24C C27G A28U G88U U102C A107C C114U | ≤ -4.2
29 | A21U C43A U78G G84U C93U C103G A115G | ≤ -4.2
30 | A21C G88A U104G A107U | ≤ -4.2
31 | A22C A23G G62A A91G A98U C114A U146A | ≤ -4.2
32 | A21U U53A C57U G83A C95U | -4.06
33 | A21U C72U A122U | -0.472
34 | A21U U33G C72A C95U A122U | ≤ -4.2
35 | A21U A24C C79U G80C C85U C93U | ≤ -4.2
36 | A21G C54U G140A U145G | ≤ -4.2
37 | A21C C87G | -3.89
38 | A21G C27G U33C G58C C96U A97U A106G G141U | ≤ -4.2
39 | A21U A30C C51U G71U C85U | ≤ -4.2
40 | A21C U53A U56A C69U A98U G117C C118G U134A | ≤ -4.2
41 | A21U U77G U78C G84A | ≤ -4.2
42 | A21U C93U U144C | -0.648
43 | A21G U55A C96U G117A | 0.86
44 | A21C G62C | -0.587
45 | A21U A29U U33G C35U G81U G84A | -4.1
46 | A21C G94C C116U | 0.209
47 | A21U C36A | -3.4
48 | A21C A41C A115G | -1.51

Row | Variant | polymerase ribozyme fitness (log ratio)
49 | A21U A26C G141A | -3.34
50 | A21U A119U G124U | -0.526
51 | A21C C32G G84A G117A U135A | ≤ -4.2
52 | A21U G83C | -1.57
53 | A21C A73U A107C A121U C149U | ≤ -4.2
54 | A21C G83C C87A G92U C116G | -1.27
55 | A21U A30G C57U A91U U104A G126A | ≤ -4.2
56 | A21G C27A G46A A73G C87A | ≤ -4.2
57 | A21G U31G C38U A66G C93A G124U U144A | ≤ -4.2
58 | A21C G25C C76G A137C U145G | ≤ -4.2
59 | A21U C38A | 0.268
60 | A21G A24U C93G | -4.02
61 | A22C A23G A49C A66G A113U | ≤ -4.2
62 | A21G C35A A49G C96G | ≤ -4.2
63 | A21U A29U C85U G141C | ≤ -4.2
64 | A22C A26C A49C U56A G59U G68U C85U G86U G94U A97G U134A | ≤ -4.2
65 | A22C A23G C54U | ≤ -4.2
66 | A21G C99U | 0.465
67 | A21U A113C U127G C132U | ≤ -4.2
68 | A21U G68C C69G C116U | ≤ -4.2
69 | A21C G84A C118A | -0.563
70 | A21C U53A G58A C95U U101G C116A | -0.162
71 | A21C U55A C96U | -0.915
72 | A21C C43U C79G G83U C87G A91G A119U G141A | ≤ -4.2

Row | Variant | polymerase ribozyme fitness (log ratio)
73 | A21U A73U C116A U134A G141C A150G | ≤ -4.2
74 | A21U G86A | -0.555
75 | A21U G50A C63G A89G C95U C116U | -1.96
76 | A21U C79G | -3.91
77 | A21G A98U C129A U144A | -3.61
78 | A21U U55G G70A C93A | ≤ -4.2
79 | A21U C57A C76U C116A | 0.702
80 | A21U C54A C96U | -2.01
81 | A21U U44A C51U C57U G65A | ≤ -4.2
82 | A21U A40U C85U G141A | 0.05
83 | A21G C76A G86U C93G U101C A122G | -0.0234
84 | A21U C32G G50A G83A G136A | ≤ -4.2
85 | A21U C69U C87U C96A | -1.14
86 | A21G U77G G88C U135G G143U A147C | ≤ -4.2
87 | A21C C96A G143A U146G | -3.61
88 | A21U C87G | ≤ -4.2
89 | A21U C87U | -0.254
90 | A21C G68C C69A C93G U144G | ≤ -4.2
91 | A21G C85U C96U C105U A106C A138G | ≤ -4.2
92 | A21G G80A C99G A119U | -0.387
93 | A21C U44A C75A C96A | -3.98
94 | A21C C57A C85G U130G | -4
95 | A21U C96U A113U | -2.6
96 | A21G A39U G83A U90G G92C C108G | ≤ -4.2

Row | Variant | polymerase ribozyme fitness (log ratio)
97 | A21C G84A C95A U104C | -0.91
98 | A21G A60G C63A C93G | -3.23
99 | A21G C36A C57U A64G G94U G126C A138G | ≤ -4.2
100 | A21C C93A U104A G141C U144G G152A | ≤ -4.2
101 | A21C G59A | -0.0146
102 | A21G U33G A52C U61G A64G U78G C95A A106G A142G | ≤ -4.2
103 | A21U G34A C69A C132G | ≤ -4.2
104 | A21G G81U C95A C96A A98U U145A | -1.34
105 | A21G U53A A60U C96U C99G A110G | ≤ -4.2
106 | A21U G59U C105U C129A | -2.46
107 | A21G A41C G46A G65U | ≤ -4.2
108 | A21U A24U G94U A97G A150C | ≤ -4.2
109 | A21U A60U C103G C108U A142G U148C | ≤ -4.2
110 | A22C A23C C36G C79A C125A G140U | -3.55
111 | A21G U31A C51G G71U A89C A106G A110U A138G | ≤ -4.2
112 | A21U C85U C131U U145G U151A | ≤ -4.2
113 | A21C C57A G81U C85A U139G | -0.214
114 | A21U C38A U102A A120U A147C | -2.82
115 | A21C C35A G84A G117A U127G | ≤ -4.2
116 | A21G A106C | -0.348
117 | A21U G62C A66C G83U A91U G152A | ≤ -4.2
118 | A21G C27A | -3.89
119 | A21U G46U U55A C85G A106G C116A | -1.91
120 | A21C A142C | 0.655

Row | Variant | polymerase ribozyme fitness (log ratio)
121 | A21G A40U U56A C132A | -3.09
122 | A21G A49C G81A G141A | ≤ -4.2
123 | A21U C51U C93G C105U A120G | -3.58
124 | A21G A52G U102A | -1.09
125 | A21G G46U | 0.452
126 | A21C A37C G84A | 0.0671
127 | A21G C57A | 1.14
128 | A21U C38A G81A | 0.0427
129 | A21G A28G U61C | ≤ -4.2
130 | A21U A113U A137G U144A | -3.99
131 | A21U G88A | -3.62
132 | A21C G34U U61A C87U U134G U135A G141C | ≤ -4.2
133 | A21G C36U A52U C116U A120U U144C | -3.59
134 | A22C A26U U33G G34A U55A A73U U77G G86A G143A | ≤ -4.2
135 | A21U C36G U44C C54G G74U A89G A120C U134G | ≤ -4.2
136 | A21C G59C C85U G100C U130A G136A U144G | ≤ -4.2
137 | A21C A40C C99G | -0.927
138 | A21C C87U A147U | 0.884
139 | A21U A26U A28U G67A G88A A122U | ≤ -4.2
140 | A21C A137G | -0.909
141 | A21U G25C A29U U33A A37U A66C G70C G88U G124U | ≤ -4.2
142 | A21C G141C | 1.03
143 | A21C A52C G68A U101G | ≤ -4.2
144 | A21G A60G G68U C93G C95G U139C | ≤ -4.2

Row | Variant | polymerase ribozyme fitness (log ratio)
145 | A21U C54U U146A | -0.081
146 | A21C U45G C54G G143C | ≤ -4.2
147 | A21G G58C | 0.298
148 | A21G U77A A91G | ≤ -4.2
149 | A21U A41G A60U C85U C103G C123A | -3.69
150 | A21C A40C G48A C85A G94C | -2.1
151 | A21U C36A G80A G88A G100U G124C G133A G143C U148A | ≤ -4.2
152 | A21G A30U A60C U77G C85A G94U G117U A150G | ≤ -4.2
153 | A21G A47C C51U C87U U90G | ≤ -4.2
154 | A21C C95U C129A | -2.89
155 | A21U C95A U146G | -0.389
156 | A21G G48A C54U G92A | ≤ -4.2
157 | A21U C38G C54U G92A G117U A121G | ≤ -4.2
158 | A21G G50C A52C C79U C118U | ≤ -4.2
159 | A21C G25A G92A G133U A150G | ≤ -4.2
160 | A21U C69U C96A C129A U135A G143U | -0.753
161 | A21G C76G A97U | ≤ -4.2
162 | A21C C85U | -0.369
163 | A21U C32A C51U A73G U134G | ≤ -4.2
164 | A21C G34A C43U A60C A64G A91U | ≤ -4.2
165 | A21G G94A | -1.01
166 | A21U A29U U61A | ≤ -4.2
167 | A21C A89C C95U A142G | -3.16

— the RNAGym collection of RNA variant scans (doi:10.1073/pnas.2313332121)
